Target: 破伤风毒素 (tetanus toxin) (Clostridium tetani, UniProt P04958 2-1315)
Sequence (P04958 2-457 limits assumed, chain 1 of 2): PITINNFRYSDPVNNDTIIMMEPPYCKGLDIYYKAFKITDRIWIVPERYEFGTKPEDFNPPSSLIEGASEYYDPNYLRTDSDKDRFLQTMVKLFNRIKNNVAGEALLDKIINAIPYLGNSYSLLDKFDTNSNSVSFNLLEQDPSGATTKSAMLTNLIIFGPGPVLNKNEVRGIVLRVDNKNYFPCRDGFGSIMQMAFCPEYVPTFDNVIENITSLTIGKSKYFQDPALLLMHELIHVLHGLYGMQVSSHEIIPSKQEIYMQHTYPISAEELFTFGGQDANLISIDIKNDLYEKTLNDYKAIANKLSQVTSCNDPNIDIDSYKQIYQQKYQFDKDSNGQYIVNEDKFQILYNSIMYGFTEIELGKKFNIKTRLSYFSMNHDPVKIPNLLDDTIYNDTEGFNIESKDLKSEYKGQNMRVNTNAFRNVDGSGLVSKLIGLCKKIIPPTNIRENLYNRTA
Sequence (P04958 458-1315 limits assumed, chain 2 of 2): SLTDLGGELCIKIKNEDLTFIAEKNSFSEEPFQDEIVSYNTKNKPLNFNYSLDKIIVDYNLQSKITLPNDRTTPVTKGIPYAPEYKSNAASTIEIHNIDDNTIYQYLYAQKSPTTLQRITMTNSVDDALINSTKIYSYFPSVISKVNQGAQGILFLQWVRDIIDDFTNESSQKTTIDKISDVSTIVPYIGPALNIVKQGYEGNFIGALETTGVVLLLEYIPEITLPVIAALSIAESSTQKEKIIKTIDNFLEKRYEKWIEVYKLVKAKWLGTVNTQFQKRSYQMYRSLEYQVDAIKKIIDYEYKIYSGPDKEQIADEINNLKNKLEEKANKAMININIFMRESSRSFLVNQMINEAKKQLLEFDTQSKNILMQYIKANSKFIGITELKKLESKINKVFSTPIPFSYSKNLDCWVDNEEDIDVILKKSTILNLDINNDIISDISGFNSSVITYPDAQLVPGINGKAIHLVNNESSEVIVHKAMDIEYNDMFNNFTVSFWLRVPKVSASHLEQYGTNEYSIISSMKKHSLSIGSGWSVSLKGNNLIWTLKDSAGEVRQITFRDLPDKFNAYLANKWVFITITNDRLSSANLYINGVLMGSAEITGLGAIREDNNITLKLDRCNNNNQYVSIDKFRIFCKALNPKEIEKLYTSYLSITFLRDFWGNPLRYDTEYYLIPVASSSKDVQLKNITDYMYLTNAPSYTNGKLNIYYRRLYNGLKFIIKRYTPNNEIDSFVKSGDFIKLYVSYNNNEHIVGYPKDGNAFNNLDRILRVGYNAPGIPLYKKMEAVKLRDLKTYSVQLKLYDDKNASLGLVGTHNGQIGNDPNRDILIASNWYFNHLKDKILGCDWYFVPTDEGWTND

B1: TRN1014抗体 (重组全人源抗破伤风毒素单克隆抗体) (antibody, V domains shown)
VH: EVQLVESGGDLVPPGGSLRLSCVASGFTFRNYWMNWVRQAPGQGLQWVASIKDDGTESQYLESVKGRFTISRDNAKNSLSLQMDSLRAEDTALYFCTRVGGFYFGSERYYKGGDDVWGQGTTVTVSS
VL: DIVLTQSPSSLSASVGDRVTFTCRASQTISNYLHWYQQKPGQAPELLIFAASNRQGGVPSRFRGSGSGTDFTLTISPLEADDFATYYCQQSYSSPRTFGQGTKLEIK
Kd: 1.1 nM | koff: 6.07e-05 s⁻¹ | kon: 55100 M⁻¹ s⁻¹

From CN108586611A (UNIV JINAN; ZHUHAI TAINUO MAIBO BIOTECHNOLOGY CO LTD; …, dated 2018)
